# B1: plasminogen kringle 5 (K5), purified from pepsin digestion of human mini-Pg (ligand, UniProt P00747 481-560, looked up)
# chain: CMFGNGKGYRGKRATTVTGTPCQDWAAQEPHRHSIFTPETNPRAGLEKNYCRNPDGDVGGPWCYTTNPRKLYDYCDVPQC
# modifications: 125I-labeled Bolton Hunter reagent (labelled form used in the binding assays)
# notes: domain: kringle 5; Proteolytic fragment (elastase, then pepsin) of purified human Pg 2; also called Pg kringle 5; angiostatin kringle-5
# Molecular target: T1, VDAC1 on the surface of human umbilical vein endothelial cells (HUVEC) (human, UniProt P21796 2-283)
# T1 construct: Endogenous protein on primary HUVEC; The assays were done on whole cells; also called K5 receptor on HUVEC; plasma membrane VDAC1
# T1 sequence (P21796 2-283): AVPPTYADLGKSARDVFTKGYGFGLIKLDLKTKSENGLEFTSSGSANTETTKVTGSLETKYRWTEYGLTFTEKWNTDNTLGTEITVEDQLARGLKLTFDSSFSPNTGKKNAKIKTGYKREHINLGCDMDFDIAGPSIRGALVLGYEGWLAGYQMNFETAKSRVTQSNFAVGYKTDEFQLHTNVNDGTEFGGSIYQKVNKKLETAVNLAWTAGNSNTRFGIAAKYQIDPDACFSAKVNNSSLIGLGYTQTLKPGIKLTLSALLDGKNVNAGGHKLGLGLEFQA
# Assay: 125I-K5 saturation binding to HUVEC monolayers at 4 C, fit to the Langmuir isotherm
# Experimental: Ligand binding analysis. Cells were grown in tissue culture plates until the monolayers were confluent. The cells were washed in HBSS. […] Wells were stripped from the plates and radioactivity was determined. Molecules of ligand bound were calculated after substraction of nonspecific binding measured in the presence of 50 mM p-amino-benzamidine.
binder,measurement,value
B1,Kd,28 nM
